Data as given in the supplement of paper PMC9170038.

Test system: MS2 coat protein
Assay: apparent KD of MS2 coat protein; higher = weaker reporter binding
Settings: Eterna round: R107
Outline: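 Designed RNA switches were transcribed on-chip from Illumina sequencing clusters. They were then titrated with SNAP-549-labelled MS2 coat protein (twofold steps, 0.7 or 1.5 nM to 3 µM; 0.8–1.5 h to 10–20 min per step) in 100 mM Tris-HCl pH 7.5, 80 mM KCl, 4 mM MgCl2, without or with constant ligand. Apparent KD is the per-design median of normalised cluster binding-curve fits.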

[1] = input ligand: theophylline 20 uM
[2] = input ligand: theophylline 2 mM
[3] = input ligand: tryptophan 2.4 mM

Sequence | apparent KD of MS2 coat protein (input ligand: arginine 13.2 mM) [nM] | apparent KD of MS2 coat protein (input ligand: none) [nM] | apparent KD of MS2 coat protein [1] [nM] | apparent KD of MS2 coat protein [2] [nM] | apparent KD of MS2 coat protein [3] [nM]
UGUAUGUGAUCUGAUACCAGAGAUGAUAACCUGAGGAUCACCCUGGUAAGGCGAAAGCCACUCCCUUGGCAGCAGAUCGCAUACU | 48.3 | 34.4 | 40.7 | 26.3 | 39
UGUAUGUGAUCUGAUACCAGCUAAUAAGCUUGAGGAUCACCCAAGUGGAGCGGAAACGCAGGCCCUUGGCAGCAGAUCGCAUACU [Denovo 9 #StaticStem #AlternativeMS2] | 54.6 | 76.4 | 34.4 | 11.7 | 70.7
UGUAUGUGAUCUGAUACCAGUCCAACUGGUAAAGCACGAGGAUCACCCGUGUAAAAUUGGGACCCUUGGCAGCAGAUCGCAUACU | 96.8 | 228 | 352 | 57.8 | 115
UGUAUGUGAUUUGAUACCAGACCAGCUGGUGGUACAUGAGGAUCACCCAUGUAGGUUUGGGUCCCUUGGCAGCAAAUCGCAUACU [SSTheo B #24] | 54.6 |  | 64.5 |  | 44
UGUCAUGGAAACAUGACUGGUUCUACCGGUCGAGGACCGGUACGGCCGCCACUCGGUUGGUGGCACAUGAGGAUCACCCAUGUUA [SS Tryp A #13] | 28.5 | 30.3 | 51.8 | 44.7 | 29.7
UGUGUAAUUGUCUGGUAGAUUUAUUUUUUUCGAGGACCGGUACGGCCGCCACUCGUUAUUUACAUGAGGAUCACCCAUGUUAGCU [JR_ExcTryptoA_Sub007] | 12.4 |  | 22.3 | 15.5 | 
UUACAUGAGGAUCACCCAUGUUUACUAUGUCGAGGACCGGUACGGCCGCCACUCGUAUUUGAUGAUUUAGGUGCCACAAGUUAUU [JR_Nu_ExcTryptoA_Sub024] | 16.1 |  | 26.6 | 22.6 | 
UUAGAUAUGACAGAUACCAGCGUGUUGUAGAACAUGAGGAUCACCCAUGUAGUGAUCAAGCGCCCUUGGCAGCUGGUAUGUUUGG [7.X] | 61.5 |  | 277 |  | 179
UUAUGCAGGUCGGCCGCCACUACACACAUGAGGAUCACCCAUGUAGUUACUGGGUGAAGUGGCAGUAGGACCGGGACCUGCACAC [Brourdmod14] | 148 | 470 | 403 | 823 | 891
UUAUGCAGGUCGGCCGCCACUACACACAUGAGGAUCACCCAUGUAGUUACUGGGUGAAGUGGCAGUAGGACCGGGACCUGCACAU [Brourdmod13] | 52 | 479 | 739 | 850 | 465
UUGGUAGGACAGCUCAUAUAAGCAUGUGAUACCAGCUAGAAAACUAGCCCUUGGCAGCACUUUACAUGAGGAUCACCCAUGUCCC [EThA NP+V+V2 #2 +-Same Structure] | 68.8 |  | 258 |  | 145
UUGUGGCGCUCGGCCGCCACUCCGACAUGAGGAUCACCCAUGUUCUACAUGAGGAUCACCCAUGUGAGGACCGGGAGACACUUCC [Exclusion Tryptophan B GF13] | 53 |  | 109 | 116 | 
UUUAACGGGCACGAUACCAGCGACAUGAGGAUCACCCAUGUAAACGCGGUGACGGUCUGUUGCCCUUGGCAGCGUGCAAAAUAAU [Zaquarar] | 43 | 67.6 | 157 | 94.3 | 48.5
UUUAUUAUUGACUCGUUAUUGUUUUUGGAUCGAGGACCGGUACGGCCGCCACUCGUGAUAUACAUGAGGAUCACCCAUGUUAGCA [JR_Nu_SSTryptoA_Sub020] | 19.3 |  | 22 | 17.2 | 
UUUGGCGGCGAUCUGGGUUUACCAGAUCGGCGAGGACCGGUACGGCCGCCACUCGUGUUUCUUUGACAUGAGGAUCACCCAUGUA [whbob_SS_trypto A_f3] | 34.9 |  | 74.6 | 102 | 
UUUUAAUGUGCGGAUACCAGCCGUACAUGAGGAUCACCCAUGUCGCUGUUGAGCAUCGUCGGCCCUUGGCAGCUGUGUGUAGUUG [#27 Same State - Theophylline B] | 26.2 | 51.9 | 62.7 | 66 | 42.3
